Article PMC4431990, “Functional and expression analyses of two kinds of betaine aldehyde dehydrogenases in a glycinebetaine-hyperaccumulating graminaceous halophyte, Leymus chinensis” (SpringerPlus, 2015)

B1: LcBADH2 (Leymus chinensis) (protein)
chain: MASPAIPQRQLFIDGEWRAPALGRRLPVINPTTEASIGEIPSGTSEDVDAAVAAARAALKRNRGRDWSRAPGAVRAKYLRAIAAKMIERKADLARLEALDCGKPLDEAAWDMDDVAGCFEFFAGHAEALDKRQNAAVSLPENFKCHLKKEPIGVVSLITPWNYPLLMATWKVAPALAAGCTAVLKPSELASVTCLELADVCKEVGLPPGVLNVVTGLGPEAGAPLSSHPDVDKVAFTGSYATGQKIMVAAAPTVKAVTLELGGKSPIVVFDDVDIDKAVEWTLFGCFWTNGQICSATSRLLIHKNIAKEFVDRMVAWSKNIKVSDPLEEGCRLGPVVSEGQYEKIKKFISNAKSEGATILTGGVRPKHMEKGFFIEPTIITDINTSMEIWREEVFGPVLCVKEFSTEEEAIELANDTHYGLAGAVISGDRERCQRLAEEIDAGCIWVNCSQPCFCQAPWGGNKRSGFGRELGEGGIDNYLSIKQVTEYTSDAPWGWYKAPAN
notes: approx 54 kDa
B2: LcBADH1 (Leymus chinensis) (protein)
chain: MAAPPAIPRRGLFIGGGWREPTLGRRIPVINPATEDTIGDIPAATVEDVELAVAAARSAFLLDGGSRWSRASGATRAKYLNAIAAKIKEKISYLALLETVDSGKPKDEAVADMDDVAACFEYYAGLAEALDGKQHAPISLPMEEFKTYVLKEPIGVVGLITPWNYPLLMATWKVAPALAAGCTAVLKPSELASLTCLELGAICEEIGLPSGVLNIITGLGADAGAPIASHPHVDKIAFTGSTATSKTIMTAAAQMVKPVSLELGGKSPLVIFDDVADIDKAVEWAMFGCFFNGGQVCSATSRLLLREKIAERFLDRLVEWAKNIKISDPLEEGCRLGSVVSKGQYEKIKKFISTARSEGATILHGGDRPKHLGKGFFIEPTIITDVSTSMQIWREEVFGPVICVKVFKTESEAIELANDTHYGLAGGVISDDLERCERIAKVIHSGIVWINCSQPTLVQAPWGGNKQSGFGRELGEWGLENYLSVKQVTRYCKDELYGWYQRPSKL
notes: approx 54 kDa

Legend:
purified protein = substrate: C[N+](C)(C)CC=O; test: purified protein; details: 50 mM HEPES-KOH pH 8.0, 500 μM NAD+
[1] = substrate: C[N+](C)(C)CCCC=O; test: spectrophotometric aldehyde dehydrogenase assay (NADH formation); assay type: biochemical, Leymus chinensis; details: 50 mM HEPES-KOH pH 8.0, 500 μM NAD+
Text: (§1) spectrophotometric aldehyde dehydrogenase assay (NADH formation) on LcBADH2

[2] = substrate: C[N+](C)(C)CCC=O; test: as above; assay type: biochemical, Leymus chinensis; details: 50 mM HEPES-KOH pH 8.0, 500 μM NAD+
Text: as §1

[3] = substrate: NCCC=O; test: as above; assay type: biochemical, Leymus chinensis; details: 50 mM HEPES-KOH pH 8.0, 500 μM NAD+
Text: as §1

[4] = substrate: NC(=O)c1ccc[n+]([C@@H]2O[C@H](COP(=O)(O)OP(=O)(O)OC[C@H]3O[C@@H](n4cnc5c(N)ncnc54)[C@H](O)[C@@H]3O)[C@@H](O)[C@H]2O)c1; test: as above; assay type: biochemical, Leymus chinensis; details: 50 mM HEPES-KOH pH 8.0, 200 μM betaine aldehyde
Text: as §1

[5] = substrate: NCCCC=O; test: as above; assay type: biochemical, Leymus chinensis; details: 50 mM HEPES-KOH pH 8.0, 500 μM NAD+
Text: as §1

[6] = substrate: NC(=O)c1ccc[n+]([C@@H]2O[C@H](COP(=O)(O)OP(=O)(O)OC[C@H]3O[C@@H](n4cnc5c(N)ncnc54)[C@H](OP(=O)(O)O)[C@@H]3O)[C@@H](O)[C@H]2O)c1; test: as above; assay type: biochemical, Leymus chinensis; details: 50 mM HEPES-KOH pH 8.0, 200 μM betaine aldehyde
[7] = substrate: C[N+](C)(C)CCCC=O; test: as above; assay type: biochemical, Leymus chinensis; details: 50 mM HEPES-KOH pH 8.0, 500 μM NAD+; remark: listed apart in the source
Text: (§2) spectrophotometric aldehyde dehydrogenase assay (NADH formation) on LcBADH1

[8] = substrate: C[N+](C)(C)CCC=O; test: as above; assay type: biochemical, Leymus chinensis; details: 50 mM HEPES-KOH pH 8.0, 500 μM NAD+; remark: listed apart in the source
Text: as §2

[9] = substrate: NCCC=O; test: as above; assay type: biochemical, Leymus chinensis; details: 50 mM HEPES-KOH pH 8.0, 500 μM NAD+; remark: listed apart in the source
Text: as §2

[10] = substrate: NC(=O)c1ccc[n+]([C@@H]2O[C@H](COP(=O)(O)OP(=O)(O)OC[C@H]3O[C@@H](n4cnc5c(N)ncnc54)[C@H](O)[C@@H]3O)[C@@H](O)[C@H]2O)c1; test: as above; assay type: biochemical, Leymus chinensis; details: 50 mM HEPES-KOH pH 8.0, 5 mM betaine aldehyde
Text: as §2

[11] = substrate: NCCCC=O; test: as above; assay type: biochemical, Leymus chinensis; details: 50 mM HEPES-KOH pH 8.0, 500 μM NAD+; remark: listed apart in the source
Text: as §2

| Protein | Km (purified protein) [µM] | Vmax (purified protein) [µmol/min/mg] | Km [1] [µM] | Vmax [1] [µmol/min/mg] | Km [2] [µM] | Vmax [2] [µmol/min/mg] | Km [3] [µM] | Vmax [3] [µmol/min/mg] | Km [4] [µM] | Vmax [4] [µmol/min/mg] | Km [5] [µM] | Vmax [5] [µmol/min/mg] | Km [6] [µM] | Km [7] [µM] | Km [8] [µM] | Km [9] [µM] | Km [10] [µM] | Km [11] [µM] |
| --- | --- | --- | --- | --- | --- | --- | --- | --- | --- | --- | --- | --- | --- | --- | --- | --- | --- | --- |
| B1 | 109 ± 10.0 | 1.59 | 22.1 ± 1.50 | 1.33 | 91.4 ± 9.60 | 1.01 | 4.53 ± 0.81 | 2.16 | 7.66 ± 0.60 | 1.36 | 1.96 ± 0.30 | 1.29 | 3680 ± 725 | – | – | – | – | – |
| B2 | 27300 ± 7000 | – | – | – | – | – | – | – | – | – | – | – | – | 56.5 ± 17.0 | 762 ± 175 | 27.4 ± 6.30 | 15.6 ± 5.70 | 48.1 ± 12.6 |
